The values that follow are results of earlier work, collected in publication PMC12860355.

As a reminder, the Kd is the free concentration of one partner at which half of the binding sites on the other are occupied at equilibrium, for simple one-to-one binding.

This series deals with TATA-binding protein (Homo sapiens) (UniProt P20226).
Sequence of UniProt P20226 (P20226 whole entry): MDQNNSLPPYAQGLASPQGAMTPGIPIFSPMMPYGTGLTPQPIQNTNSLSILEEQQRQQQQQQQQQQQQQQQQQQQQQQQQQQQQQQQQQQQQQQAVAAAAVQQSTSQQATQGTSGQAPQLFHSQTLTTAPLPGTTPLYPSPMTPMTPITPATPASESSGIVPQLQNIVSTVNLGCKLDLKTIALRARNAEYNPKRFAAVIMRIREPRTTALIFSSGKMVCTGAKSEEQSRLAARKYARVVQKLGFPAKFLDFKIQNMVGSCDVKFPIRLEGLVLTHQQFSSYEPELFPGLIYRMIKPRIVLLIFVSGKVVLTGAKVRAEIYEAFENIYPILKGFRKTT

Turning to Importin 9 (from UniProt Q96P70), the Kd is 1 nM.
